# B1: ydeH transcript (-29 to +25) (ssRNA)
# RNA: GGGCACAAGGAACUGUGAAAAAGGAGUGGCAAUGAUCAAGAAGACAACGGAAAUUG
# B2: ycdT transcript (-36 to +20) (ssRNA)
# RNA: GGGAAAGGGAUCUACAACCUACAGAUUGGUGUAGCUUUAUGGAAAAAGACUAUUUGAG
# Target: CsrA-His6 (Escherichia coli, UniProt P69913 1-61)
# Assay: EMSA
# Sequence of CsrA-His6 (P69913 whole entry): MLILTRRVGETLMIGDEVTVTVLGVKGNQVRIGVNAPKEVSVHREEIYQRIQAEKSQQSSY
row,Binder,Kd
1,B1,2.3 ± 0.1 nM
2,B2,2.6 ± 0.3 nM

# — article PMC2735045
